Measurements: patent US20180155451A1 (published 2018)

Tests used:
[1] = molecular target: T1, FcγRIIa H (human, UniProt P12318 34-217); experiment: SPR (Biacore); He/Con_2aH divided by He/Con_2b (FcγRIIb) of the same antibody
T1 construct: extracellular domain; Soluble His-tagged extracellular domain expressed in FreeStyle293 cells; also called FcγRIIa type H; FcgRIIa H; not shown: His tag attached to the C terminus
T1 sequence (looked up): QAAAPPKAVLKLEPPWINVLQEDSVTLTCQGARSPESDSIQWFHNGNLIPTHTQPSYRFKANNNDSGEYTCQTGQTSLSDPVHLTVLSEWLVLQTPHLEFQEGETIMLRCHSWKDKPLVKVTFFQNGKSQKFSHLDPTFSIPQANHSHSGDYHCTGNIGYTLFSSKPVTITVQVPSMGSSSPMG

[2] = molecular target: T1, FcγRIIa H; experiment: SPR (Biacore), captured antibody, FcγR analyte; relative to GpH7-A5/GpH7-B3/GpL16-k0 = 100
Description: (§1) The heterodimerized antibodies He Abs in which one of the H chains was introduced with an alteration were assayed for their binding activities to each activating FcγR and inhibitory FcγR according to the method described in Example 4. […] The activating FcγRs in FIGS. 26, 27, 28, and 29 are FcγRIa, FcγRIIa (R), FcγRIIa (H), and FcγRIIIa, respectively.
(§2) Analysis of interaction between objective antibody and the FcγR was carried out using Biacore T100 (GE Healthcare). HBS-EP+ (GE Healthcare) was used as the running buffer, and the measurement temperature was set to 25° C. Chips produced by immobilizing the antigen peptide by the amine coupling method to a Series S Sencor Chip CM5 (GE Healthcare), or alternatively, chips produced by allowing preliminarily biotinylated antigen peptides to interact with and immobilize onto a Series S Sensor Chip SA (certified) (GE Healthcare) were used. Antibodies of interest were captured onto an antigen peptide-immobilized chip, and allowed to interact to each FcγR diluted with running buffer. To regenerate and repeatedly use the chip, the antibodies captured on the chip were washed off by reacting 10 mM glycine-HCl, pH 1.5.

[3] = molecular target: T2, FcγRIIb (human, UniProt P31994 43-217); experiment: as above
T2 construct: extracellular domain; Soluble His-tagged extracellular domain expressed in FreeStyle293 cells; also called FcgRIIb; 2b; not shown: His tag attached to the C terminus
T2 sequence (looked up): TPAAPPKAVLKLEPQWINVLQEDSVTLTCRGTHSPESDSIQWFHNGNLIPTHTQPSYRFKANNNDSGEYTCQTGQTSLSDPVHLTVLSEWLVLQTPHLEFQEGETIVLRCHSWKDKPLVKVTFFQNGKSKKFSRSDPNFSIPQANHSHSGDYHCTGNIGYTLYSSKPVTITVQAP
Description: as §1, §2

B1: GpH7-A5/GpH7-B3 variant N325_03V/GpL16-k0 (antibody, human IgG1, kappa)
heavy 1: not shown
heavy 2: not shown
light: DIVMTQSPLSLPVTPGEPASISCQASESLVHSNRNTYLHWYLQKPGQSPQLLIYKVSNRFSGVPDRFSGSGSGTDFTLKISRVEAEDVGVYYCSQNTHVPPTFGQGTKVEIERTVAAPSVFIFPPSDEQLKSGTASVVCLLNNFYPREAKVQWKVDNALQSGNSQESVTEQDSKDSTYSLSSTLTLSKADYEKHKVYACEVTHQGLSSPVTKSFNRGEC
notes: Heterodimerized anti-glypican-3 IgG1; mutation in the GpH7-B3 H chain only; also called He Ab
He_2aH/2b [1]: 0.41 ratio | He/Con_2aH [2]: 45.2 relative (control = 100) | He/Con_2b [3]: 111 relative (control = 100)

B2: GpH7-A5/GpH7-B3 variant N325_04F/GpL16-k0 (antibody, human IgG1, kappa)
heavy 1: not shown
heavy 2: not shown
light: DIVMTQSPLSLPVTPGEPASISCQASESLVHSNRNTYLHWYLQKPGQSPQLLIYKVSNRFSGVPDRFSGSGSGTDFTLKISRVEAEDVGVYYCSQNTHVPPTFGQGTKVEIERTVAAPSVFIFPPSDEQLKSGTASVVCLLNNFYPREAKVQWKVDNALQSGNSQESVTEQDSKDSTYSLSSTLTLSKADYEKHKVYACEVTHQGLSSPVTKSFNRGEC
notes: as for B1
He_2aH/2b [1]: 0.23 ratio | He/Con_2aH [2]: 33.4 relative (control = 100) | He/Con_2b [3]: 143 relative (control = 100)

B3: GpH7-A5/GpH7-B3 variant N325_05P/GpL16-k0 (antibody, human IgG1, kappa)
heavy 1: not shown
heavy 2: not shown
light: DIVMTQSPLSLPVTPGEPASISCQASESLVHSNRNTYLHWYLQKPGQSPQLLIYKVSNRFSGVPDRFSGSGSGTDFTLKISRVEAEDVGVYYCSQNTHVPPTFGQGTKVEIERTVAAPSVFIFPPSDEQLKSGTASVVCLLNNFYPREAKVQWKVDNALQSGNSQESVTEQDSKDSTYSLSSTLTLSKADYEKHKVYACEVTHQGLSSPVTKSFNRGEC
notes: as for B1
He_2aH/2b [1]: 0.8 ratio | He/Con_2aH [2]: 20.7 relative (control = 100) | He/Con_2b [3]: 26 relative (control = 100)

B4: GpH7-A5/GpH7-B3 variant N325_06M/GpL16-k0 (antibody, human IgG1, kappa)
heavy 1: not shown
heavy 2: not shown
light: DIVMTQSPLSLPVTPGEPASISCQASESLVHSNRNTYLHWYLQKPGQSPQLLIYKVSNRFSGVPDRFSGSGSGTDFTLKISRVEAEDVGVYYCSQNTHVPPTFGQGTKVEIERTVAAPSVFIFPPSDEQLKSGTASVVCLLNNFYPREAKVQWKVDNALQSGNSQESVTEQDSKDSTYSLSSTLTLSKADYEKHKVYACEVTHQGLSSPVTKSFNRGEC
notes: as for B1
He_2aH/2b [1]: 0.22 ratio | He/Con_2aH [2]: 48.2 relative (control = 100) | He/Con_2b [3]: 217 relative (control = 100)

B5: GpH7-A5/GpH7-B3 variant N325_07I/GpL16-k0 (antibody, human IgG1, kappa)
heavy 1: not shown
heavy 2: not shown
light: DIVMTQSPLSLPVTPGEPASISCQASESLVHSNRNTYLHWYLQKPGQSPQLLIYKVSNRFSGVPDRFSGSGSGTDFTLKISRVEAEDVGVYYCSQNTHVPPTFGQGTKVEIERTVAAPSVFIFPPSDEQLKSGTASVVCLLNNFYPREAKVQWKVDNALQSGNSQESVTEQDSKDSTYSLSSTLTLSKADYEKHKVYACEVTHQGLSSPVTKSFNRGEC
notes: as for B1
He_2aH/2b [1]: 0.22 ratio | He/Con_2aH [2]: 38.1 relative (control = 100) | He/Con_2b [3]: 171 relative (control = 100)

B6: GpH7-A5/GpH7-B3 variant N325_08L/GpL16-k0 (antibody, human IgG1, kappa)
heavy 1: not shown
heavy 2: not shown
light: DIVMTQSPLSLPVTPGEPASISCQASESLVHSNRNTYLHWYLQKPGQSPQLLIYKVSNRFSGVPDRFSGSGSGTDFTLKISRVEAEDVGVYYCSQNTHVPPTFGQGTKVEIERTVAAPSVFIFPPSDEQLKSGTASVVCLLNNFYPREAKVQWKVDNALQSGNSQESVTEQDSKDSTYSLSSTLTLSKADYEKHKVYACEVTHQGLSSPVTKSFNRGEC
notes: as for B1
He_2aH/2b [1]: 0.26 ratio | He/Con_2aH [2]: 52 relative (control = 100) | He/Con_2b [3]: 197 relative (control = 100)

B7: GpH7-A5/GpH7-B3 variant N325_09D/GpL16-k0 (antibody, human IgG1, kappa)
heavy 1: not shown
heavy 2: not shown
light: DIVMTQSPLSLPVTPGEPASISCQASESLVHSNRNTYLHWYLQKPGQSPQLLIYKVSNRFSGVPDRFSGSGSGTDFTLKISRVEAEDVGVYYCSQNTHVPPTFGQGTKVEIERTVAAPSVFIFPPSDEQLKSGTASVVCLLNNFYPREAKVQWKVDNALQSGNSQESVTEQDSKDSTYSLSSTLTLSKADYEKHKVYACEVTHQGLSSPVTKSFNRGEC
notes: as for B1
He_2aH/2b [1]: 0.43 ratio | He/Con_2aH [2]: 53.1 relative (control = 100) | He/Con_2b [3]: 124 relative (control = 100)

B8: GpH7-A5/GpH7-B3 variant N325_10E/GpL16-k0 (antibody, human IgG1, kappa)
heavy 1: not shown
heavy 2: not shown
light: DIVMTQSPLSLPVTPGEPASISCQASESLVHSNRNTYLHWYLQKPGQSPQLLIYKVSNRFSGVPDRFSGSGSGTDFTLKISRVEAEDVGVYYCSQNTHVPPTFGQGTKVEIERTVAAPSVFIFPPSDEQLKSGTASVVCLLNNFYPREAKVQWKVDNALQSGNSQESVTEQDSKDSTYSLSSTLTLSKADYEKHKVYACEVTHQGLSSPVTKSFNRGEC
notes: as for B1
He_2aH/2b [1]: 0.55 ratio | He/Con_2aH [2]: 52.5 relative (control = 100) | He/Con_2b [3]: 95.9 relative (control = 100)
